The data set is described as follows: label from the status in PepcDB records.
Take “MSRSPRYTNFILIAVMLGALLPAAGCLEEHEVASAGLSSATMSVNLTYYTEQLPPYNYMENSMLQGLSVDLLEEITEKMGKKVTREEVHLVPWTEGYQAALNGNNTVLFSMARSPEREQFFKWAGPIYSDRYVLFAKRDRGITIKNPEDLKGYRIGVIADDIATRQLLDIGVNQSQIAPESNVSAIIAGLENGDIDLWACPEDAGRYFTEELTGSYYSYTVVYQLETQDLYYAFSKDVPDSVVQSFQQALDAVKREKDVEGISTYDRILGKYIPSIGLARLNYLTEEWAPFNYQEDGNVTGISVEILEAVFKNIGVNRSRADVRIVPLAEGFQIAQNNTSTVLFSIVRTPEREPFYKWAGPFTRANFVLYAPVSSNITISSPKDLNQYRIGAIRASIENDLLASQGVNESQIINGQTPEDLFRMLEEGQIDLWATGDLAGRHQMLRTAEDPNAYEIVYTLSENDFYYIFSKDVPDTLVSAFQQALDTVRDQRDEQGVSDYERIIYRNLGVGCAPQTFTDDTVMELVNTTVKAIEKNASDTFRRINAGEAPYRDSKDPGLYAFVYDTNLTIVAHADNIQLVGTNFRGKTDVTGKPFRDEILEGALKNGTGSVDYVYMHPVQTNLYYKTAYYRLTRGSDGNSYIVCSGNYKLCQNQSEAMPANNSTASPEELAAFVEKAFEYAHENGQEVALREFNNQAGQFVDGKFYIFAYDTNGTTLALPFQPEIIGTKRWNVTDTNGTLFIQDLVDTAQSGGGFVRYFYADPADNFTVKQKLSYVMMVNQSWIIGSGIYDPQKDSAIVRAGTDPQVRENLKSFVGEAIEYANTNGKDTAIEEFNDRNGAFVRGNLYIYAFDYNGTTLALPYQAQLIGTNLSELQDPYGVNYTKVEIFMAQQGGGFLFYHYYNPARNMTLEPKMSYVQKVDDTWWLGAGTYTEDLNRITKRD”: the protein production entry is listed as “failed”. Then “MIFEIIKIGSQPINFAYPIPLLSLLAFMLSGSGYNELIISYIFAFSFFTAANLWNHLNDAEDDLNAGRNYARFLIEHRKIVTEFVVAFYFVSFLLIFFISKSKEIALLLTGLSVVLTWLYSDKIFIGKIIRRFKEDYKTEVFTYILCSFSFPLSFWTIFSEISQVGVVFTLATGFTYLSGFFLKDLKDISADIKSGYRTLAVVLSPSTLLIISVMLFIASTFVVIFSSLLDVTPTSSLLVLTVYPPILFAIYKFHKEKWKITKNIISSLKIYTYSYLGFLIAFAIGCKL”, with “failed”; and “MAKSKKIVFTGGGTVGHVTLNLILIPKFLKDGWEVHYIGDKHGVEHEQIDKSGLDVTFHSIATGKLRRYFSWQNMLDVFKVGWGILQSIAIIAKIRPQALFSKGGFVSVPPVIASKLLRVPVYVHESDLSMGLANKIAYKFATTMFTTFEQSKTLVKTRHVGAITKVGMTRFDNSDQLDKIKEQFDEKLKTVLFIGGSAGAKVFN”, with “failed”; and “YTVEPVQDGERSVTLRRAGGTPLVAAMYHLPAAGSPDFVGLDLAATILADTPSGRLYHALVPTKLASGVFGFTMDQLDPGLAMFGAQLQPGMDQDKALQTLTATLESLSSKPFSQEELERARSKWLTAWQQTYADPEKVGVALSEAIASGDWRLFFLQRDRVRDAKLDDVQRAAVAYLVRSNRTEGRYIPTEKPQRAPLAQR”, with “failed”. Then “MQKTLTSAIDIPEQMQNDWQNMLDILSNVINVPAALIMRIYDNDIKVFSSSSSTENPYIKGATEKLNQGLYCETVIEERQELTVFNALVDPEWRSNPDLKQNMIAYCGLPLYWPDNTPFGTLCILDKKENHFSPTYQKLMKTYQHSIEAQLNTLYQHADLLNRHQELQAEVARTTQHLNEINIKLSNEIDCRRAAEQKVEYHKNHDVNTGFLNPIAIHKHVDSLIKSETKFVLLHIHFANSRKIQQEYGYQAFDSLLIEYRSKLTKITDTSVTGRLGSSDILLIIQTDKEKLPQLCQHLSEIGQANYTANEQSLHLQTYVGAVHSKEGISRSDLLQFAYDTVVKCQSLGKTFTIADVSLPTQSSLSEHKIERYLLEAVRNHDLFLNYQPKVCPVNKKWIGCEALLRWNHPHLGAIANDVLIQLAERNGLIYELGNFALRNAIQQASEWILHSPNFVMAVNISAVQLKDPHFVTHIKQLLSLYQLPSKNLELEVTESGLISDEPLAITTLSQLNNMGISIALDDFGTGYASFQYLKKYPFSSLKIDKSFIANIEQNEDDQNIVCAMINIAKKLQLKVVVEGVENQNQEAFVVKEGIDLIQGYLYSKPISATDFEEGLFNQSSIGTPYFHFV”, with “failed”. Under “MLIYNLAIHSYLGCDSLALLPKANTLSKEKNINNADDTIKDQILASIDSFIYTKDLSGKYTYANQAVLDLFEKNLADVIGFDDTHFFDLALSKQLKANDRMVMDQVIRIENEESNFIRAKNETRIFKVVKKPLFDHLGNVNGICGISTDITVEKQLQEQVNEQSYLLETMLNNIDAHIYVKDCERTFLYVNNRVAELFGDKAENIIGKKDTDILPKEIAEHFYQSDKQVFETNQKQVIEETTHGENGDNCHYISTKVPFDRPDKLPALIGFSTDVTELFKLKEEFKLLANTDPLTNLYNRRFFIEQAEKEYQRAKRYSLSMTLISIDIDHFKSINDQFGHPAGDQVLIEIAKQLKASLRQTDILARIGGEEFSILLPETSAMSAMTFAERIKEEQSRLIITGDWQGEINLSVSIGVSSLIASDKAFDVLFSRADKALYQAKNTGRNTVCYL” stands “failed”; under “MLSVFLEIIYERQLRKINLKILTDFINLIKEESLSNGAEFIQVQGGFYFLFKKKSIAYAFSTARFLYNVNKILISYKNKISEVRCITDYYEEDVSNEALFESLSLYKKQLIPEMGMFASREAANKLSKYIDFNETDSSILLCNAFKFFENINLTSNKNADKNASIILHRNDNYFWSIYNFILANPLDNDSLKAMSNEDRISFLATKNVYIYLKKHRFSKDMPQYFIDAFLTNAAIYLKNYIKKQNGRRSVKVLIDNLNDKKNLDEAEKIYAVNKYMEIEALDSSLPSIYNIPDDLLQLIYIILVSSKYFFYDEITDFLVSLNKSKAFFDDVYAWMYSMGIILVENNIYAVPYGLPEIIERRINLSKNMVDSNITEYLWAKYKKGILNANSDAEKIFDSLNFKCKPDFLLASIFHNYSDSSIEGLDLKKYKNEIFYDALKYYQNSIIANIDDSTAKSYAYLKTAIGFFQENKLESGEYRAFSLLAFFNLMQNKISDAITYFSYALDNAEHSHDTSFICDALFNISIVYFLQNNLKQSITFLDRLAAAVDEYFEQDWKIPYLFMKGRVYLQIGEFNKAADSFRMASDFADLYFDKIEPLCKSWYGRSLIYMGQIKNGQEILIKYIDYTDDALLFLLESFLFYPVLNNDFEKMDLDISSIYSAYNNSGLTDFINLKSGFSIAEDLIWSNIYDMSIGKKMFDAFYNYYNCKINFSKMYDIEECKILLSNLEASAVESLYQNDPYSSLYMYLCYDLSVKLYGENSSQTIAYLSKAFKSMQKNVLAIGENDIRDKYMQNNLWNSKLFKVAKNQKLI”, “failed”. For the sequence “MKIIRNYLYNASYQVLILLTPLITVPYVARVLGPTGVGVYSYTNSIITYFVLIGTLGITVYGNQQIAFHRDDIIERSRTFWEIELLQAVNVGITFLGFGIFLILDHRYQLFMVFQSCQLLAGAFDVSWFFMGIEDFKKTVFRNTLVKIATLGAIFIFVRTQSDLGLYILILALSQLVGNFTLWPYLKTRLVRIKFKDLKIWHHYVPALMLFVPQAANLVYQQVNKTMLGNLDTVNSVAYFDYADKLIKTVLAVVTATGIVMLPHMANLHAKGKNETIKRYLYKSFEFVSMIALPLGFGIAGIATTLAPIYFGQDFSISGKLLIIEAPVILLIGWSNVIGQQYMMPTEQISKYTKSVIIGAIVNVILNVPLIMYLGAVGAPIATVAAELSVTLYQLFVVRKQIQINLLFSDFWKYLFSSTVMFIVVYGLNVSMPMSIINLIVQIVEGMIIYLGMLLVLQPKLVVEGKSLLLGKLHK”, the protein production result is reported as “failed”. Under “MNGGSSIKVLGLVGSPKVDGNTAKMVDAILEGAAENGAETVIYNLASLDIKGCDACHRCQETGCCAIDDDMQELYRQIEEADAVVLGSPVYMWQMTAQTKLLIDRMTAFLKPNFSSRLDHKKLILVFTQGIPDRDAFNSYFEYTAGVLYYLGFDVLETIVAAGTDNLEVAFRPRLLEKSRELGKLISASNPVSPRLEHHHHHH” stands “failed”; under “MNSTRGVTLIQLSSALAYSHALMNQVVNPGDHVIDATVGNGHDTVYLAKLVGTTGHVDGFDIQSAAIEATTTALDKAALTHQVTLWQTGHEHIADKIAADQPIKCAVFNLGYLPGGDKQIITKPTTTLTAIKAIQERLVTNGLIILLVYAGHPGGATEAQAVLDYVTNLDQHQFQVLQYQFINQVHVPPYLLAIQKR”, “failed”. Then “MAKVSVYIIAYNEEQKIEPALQSVTWADEIVVIDSFSTDRTAEIARKYTDKVIQVPFEGFGKLRNSAIAATSHEWIFSLDTDERCTEEAKNEILAIIDSPDALDAYYVPRRNIFMGRWVKHSGWYPDYRQPQLFRRGAQVFTDEVVHESFTTIGRVGHMKNAIWQIPFRNFEQMISKIDRYSTLGAAKMTAKGVRPGMGKALFHALFAFFRMYILRLGILDGWAGFVIALYTFEGTFYRYAKQVEAARGWVMTRPEELER”, with “failed”. Under “MSAYDNVIGGKLKLKGKALDVKAGGVKKKKKHKRQEEQALKITDHELIEGESTEALGKLIEGEEGDEEMNRSEKASEDAKLQQQLDDDDHLTPAERRYIEQKQRLDVQKLAKEANKSHRNRIEDFNQYLANMSEHYDIPKVGPG” stands “failed”; under “MQEAPNTPTRPQAPPSAHLESPQPARTQQQSIQQMTPQSTTSSNNFLKDGAAGAVLEDQDIEEVLKALKTFDGGHVNPDTICEFFDEVWEEAAPAAPLPPAPPENVVDVPGAKPSCSGILVSGSNISQPNVIIKQEQRPWQESHAELEQQQHVISRRIEFLLRRMRKLQARAMCRHASEEVVGIMEWSARSSHKAPV”, “failed”; under “MTLITVVFVAFALLVIFYTNFMTHTLCERKQIAASRQPGVFRVINVCITILLISSYIEIIFHGK”, “failed”. As for “MRVAILGCGYVGCALARRLLAAGHDVVGVCRSPDSLDAVRETGATAVRADVTDAASLAAVPDADAVVFAASSGGRGADAAREVYVDGLRTVVEQFGGRDDPPEQLVYTSSTGVYGDHDGDWVDEETPLDPTTEKTAALVDAERVALTDASEHGLDPTVVRFAGLYGPDRYRLTRYLDGPVTEGYLNMIHRDDAAGVVAFALTDADADVLLAVDDDPVSKWAFADWLADEAGVPQPAKQTVAERIAAGDLSTPAERRLRTSKRCSNARLTELGYSFAHPTFRSGYQAAIRAHERGEYK”, the protein production entry is on record as “failed”.

“MLLAVEGGGLFSASASGYSKGLTLLFSGDKDVDRPMRVVPWNHYQVVDQEPEADPVLQLDSIKNRVSRGCAASFSCFGGASAGLETPSPLKVEPVQQQHREISSPESVVVVSEKGKDQISEADNGSSKEAFKLSLRSSLKRPSVAESRSLEDIKEYETLSVDGSDLTGDMARRKVQWPDACGSELTQVREFEPRYV”: the protein production result was “failed”. Then “MQSLGSLAKNIKPNQNIVEEEHNLKCERCGNTYDYYKFSNGKEFRHGCDCSMIAAGKEAEQQRKQKYLNRIFNQSNVNASLRDATVNSYQPQNDHQVHAKSTAIEYVKGFSVDKPKSLILQGSYGTGKSHLAYAVAKAIKQQGYSVAFMHIPMLMERIKATYNRNATETTDELVQLLSSIDLLVLDDVGVENTEHTLNKLFSIVDNRVGKNNIFTTNFSDKELNQNMNWQRINSRMKQNARTVRVLGDDFRGRDAW”, with “failed”; and “MMKMDLKKEVKEEFIRFQRNEKTESIVYERLASIEKDESNRKVLRLISAEEKAHYATLKKYTETDVAPDKLRIAKYYWLARILGITFAIKLMESSEENAHHDYAKYTDYPDLRQLANEEEVHEQKLIGLINEERLEYMGSVVLGLNDALVEFTGALAGFTLALSDSRLIALTGSITGIAAALSMASSEYLSTKSEGGETKHPIKAAIYTGIAYIITVVALVAPFILIENVLIALGVMLAMALVIIALFNYYYSVARGESFRKRFTEMAVLSFSVAGISFLIGYALKTFTGIDA”, with “failed”.

Source of the values: a protein production outcome set (Wang et al. 2014).
